This note sets out measurements from patent US20240368272A1 (UNIVERSITY OF BERN, published 2024).

Assay [1] concerns the target T1, human KCNQ1 (expressed together with KCNE1 as a separate chain; IKs channel) (human, UniProt P51787 1-676).
T1 sequence: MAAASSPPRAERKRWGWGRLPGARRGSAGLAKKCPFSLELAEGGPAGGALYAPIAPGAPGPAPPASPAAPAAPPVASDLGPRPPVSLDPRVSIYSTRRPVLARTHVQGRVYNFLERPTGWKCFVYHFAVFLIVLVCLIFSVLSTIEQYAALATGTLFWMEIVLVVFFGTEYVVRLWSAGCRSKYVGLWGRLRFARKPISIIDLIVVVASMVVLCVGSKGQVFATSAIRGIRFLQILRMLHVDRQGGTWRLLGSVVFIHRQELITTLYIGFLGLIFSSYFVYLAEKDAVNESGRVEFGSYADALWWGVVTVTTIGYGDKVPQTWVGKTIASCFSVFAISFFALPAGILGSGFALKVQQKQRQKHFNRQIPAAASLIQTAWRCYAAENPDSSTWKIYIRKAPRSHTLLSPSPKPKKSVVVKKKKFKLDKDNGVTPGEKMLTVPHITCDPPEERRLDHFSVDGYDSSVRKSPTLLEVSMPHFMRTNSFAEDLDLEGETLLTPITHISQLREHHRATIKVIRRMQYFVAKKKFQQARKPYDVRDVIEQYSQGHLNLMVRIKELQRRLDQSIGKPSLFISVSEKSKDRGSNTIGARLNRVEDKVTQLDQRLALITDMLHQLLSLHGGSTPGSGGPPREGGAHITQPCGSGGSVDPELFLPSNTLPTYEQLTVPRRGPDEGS
Nature of the assay: cell-based or functional assay.

The target in assay [2] is T2, N-terminally biotinylated KCNQ1 peptide (Nterm-Biotin-(CH2O)4-AEKDAVNESGRVEFGSYADA-Cterm) (human, N-terminal Biotin-(CH2O)4-).
T2 construct: Immobilised on streptavidin biosensor tips for Octet BLI
T2 peptide: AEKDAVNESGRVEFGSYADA
Kind of assay: bio-layer interferometry (Octet RED96), biotinylated KCNQ1 peptide on streptavidin tips, 1:1 model, mean of duplicate runs. As for the experimental part:
(§1) FIG. 16. Kinetic measurements of mAb binding to 20aa KCNQ1 target sequence.
(§2) Binding kinetics of KCNQ1 peptide interactions with IgG2a 8-F11-D4 was monitored using Octet RED96 Bio-Layer Interferometry (Sartorius). All measurements were performed in duplicate at 25° C. in an assay-specific buffer containing 1× PBS pH 7.4, 1× kinetic buffer and 1% BSA using 96-well plates with orbital shake speed of 1,000 rpm. The binding curves were generated by first immobilizing 1 mM N-terminally biotinylated KCNQ1 peptide on streptavidin-coated biosensor tips for 2.5 min followed by a baseline equilibration step for 5 min. The biosensor tips were then submerged in wells containing […] mAbs for 5 min to monitor formation of the mAb-peptide complex, followed by antibody dissociation in the assay buffer for 5 minutes. A shift in the interference pattern of white light reflected from the surface of a biosensor tip caused by antibody binding/dissociation was monitored in real time. Antibody-peptide interactions were analyzed by a 1:1 binding model and the dissociation constants (KDs) were determined as ratios of dissociation (koff) and association (kon) binding rate constants derived using non-linear fitting model in GraphPad Prism.

Assay [3] addresses T3, KCNQ1 channel peptide (AEKDAVNESGRVEFGSYADA) (human).
T3 construct: Coupled to KLH for immunisation; the free peptide (2.12 kDa) was the analyte in SPR; also called KCNQ1 peptide; antigenic peptide
T3 peptide: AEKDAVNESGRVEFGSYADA
Nature of the assay: SPR (Biacore 8K), antibody immobilised on CM5 chip, peptide as analyte, mean of triplicate. As for the experimental part:
Antibody kinetics and affinity measurement: A Biacore 8K Surface Plasmon Resonance (SPR) instrument (GE Healthcare Life Sciences, ProteoGenix, France) equipped with a CM5 sensor chip was used to generate binding kinetic rate and affinity constants at room temperature. IgG2a 8-F11-D4 (10 μg/ml) was immobilized onto the CM5 chip by amide coupling, following manufacturer's protocol. The surface chemistry was activated using 1-Ethyl-3-(3-dimethylaminopropyl) carbodiimide hydrochloride (EDC) and sulfo-N-Hydroxysuccinimide (NHS) reagents prior to immobilization, while ethanolamine was used to deactivate remaining active esters. Samples were prepared in HBS-EP⁺ buffer composed of 10 mM HEPES (pH 7.4), 150 mM NaCl, 3 mM EDTA, 0.05% Surfactant P20. The antigenic peptide was suspended in 20 mM sodium acetate (pH 4.5) and glycine-HCl (pH 1.5) was used as regeneration buffer. […] This level was considered optimal based upon the calculation of the maximal response (Rₘₐₓ) of analyte (antigenic peptide) to ligand (IgG2a): Rₘₐₓ=(MWanalyte/MWligand)×RL×Sₘ, where MWanalyte and MWligand are the molecular weights of the peptide (analyte, 2.12 kDa) to the antibody (ligand, 180 kDa as determined by SDS-PAGE), respectively, RL is the target amount of ligand bound in RU, and Sₘ represents the stoichiometric ratio of the analyte/ligand interaction (Sₘ equals 1). A theoretical Rₘₐₓ of […] is achieved at 10′000 RU of ligand. […] Injections were performed in triplicate to assess for the assay's reproducibility. All data were processed and analyzed with Biacore 8K Evaluation Software.
A general note: Surface plasmon resonance follows binding to a sensor surface in real time, without labels.

The target in assay [4] is T2, N-terminally biotinylated KCNQ1 peptide …. Nature of the assay: BLI (Octet RED96), biotinylated peptide on streptavidin tips, antibody in solution, 1:1 model, duplicate. Here is the method: as §1, §2

Broadly, the Kd is the constant that tells how readily two partners part at equilibrium. The term koff denotes a measure of how fast the partners let go of each other. Usually kon stands for the second-order rate constant of association. The low end stands for slower complex formation, the high end for faster complex formation.

B1: IgG2a 8-F11-D4 monoclonal antibody (antibody, V domains shown)
VH: EVKLVESGGGLVKPGGSLQLSCAASGFTFSNYAMSWVRQTPEKRLEWVASISGGGNTYYPDSVKGRFTISRDNARNILYLQMNSLRSEDTAMYYCVRATRDYFDYWGQGTTLTVSS
VL: DIVMSQSPSSLAVSVGEKVTMSCKSSQSLLNSRTRKSYLAWYQQKPGQSPKLLIYWASTRESGVPDRFTGSGSGTDFTLTISSVQAEDLAVYSCEQSYYLYTFGGGTKLEIK
notes: also called mouse monoclonal IgG2a 8-F11-D4; murine monoclonal anti-KCNQ1 antibody IgG2a 8-F11-D4
As to B1, in assay [1], the “half-maximal effective concentration (EC50) of APD90 reduction in hiPSC-CMCs” value is 5.7 µg/mL; the “mean IKs step current at +70 mV, whole-cell patch clamp, CHO cells stably expressing human IKs channels, 30 µg/ml IgG” value is 1.6 fold; the “mean IKs tail current upon repolarization to -40 mV, whole-cell patch clamp, CHO cells stably expressing human IKs channels, 30 µg/ml IgG” value is 1.5 fold. This molecule also returned a Kd in assay [2] of 3.7 nM. In assay [3], this molecule gave a dissociation constant Kd of 9.02 nM, a koff of 0.00082 s⁻¹ and a kon of 90900 M⁻¹ s⁻¹. For the same molecule, the Kd in assay [4] is ~4 nM.

B2: recombinant murine IgG2a 8-F11-D4 antibody (antibody, V domains shown)
VH: B1 VH
VL: B1 VL
Regarding B2, in assay [1], the “IKs step current at +70 mV versus control, CHO cells stably expressing human IKs, 30 µg/ml recombinant antibody” value was 1.6 fold and the “IKs tail current versus control, CHO cells stably expressing human IKs, 30 µg/ml recombinant antibody” value was 1.5 fold.
